Test results reported in IntAct's records for PubMed 21850687.

Columns and labels:
prdx3_human PRDX3 [1] = target: prdx3_human PRDX3 (UniProt P30048)
prdx3_human PRDX3 [2] = target: prdx3_human PRDX3 (UniProt P30048); remark: listed apart in the source

Chain of UniProt P30048 (P30048 whole entry): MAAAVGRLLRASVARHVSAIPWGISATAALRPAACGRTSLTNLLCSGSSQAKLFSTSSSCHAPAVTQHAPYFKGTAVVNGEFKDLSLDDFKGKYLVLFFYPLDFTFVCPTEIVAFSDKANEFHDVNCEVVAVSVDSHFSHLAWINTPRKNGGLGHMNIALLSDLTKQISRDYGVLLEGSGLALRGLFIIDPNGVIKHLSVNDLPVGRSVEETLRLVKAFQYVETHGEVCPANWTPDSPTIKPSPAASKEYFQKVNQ

effect of a mutation on the interaction (prdx3_human PRDX3 [1])	effect of a mutation on the interaction (prdx3_human PRDX3 [2])	Substance
disrupting interaction		Leucine-rich repeat serine/threonine-protein kinase 2 (Homo sapiens), Q5S007 G2019V;I2020F
	increasing interaction	Leucine-rich repeat serine/threonine-protein kinase 2 (Homo sapiens), Q5S007 G2019S
